The text below walks through data of patent US20040254352A1, “Lipid-polymer-conjugates” (priority 2001, published 2004).

Several values for one entry are separate records, joined by “and”; a condition that tells them apart may be missing. Equal values may be shown once.

Series [1] is described as follows: Comparative kinetics of 3H-labelled liposomes containing polymer-lipid-conjugates after a single intravenous injection to the rat (blood circulation time). The settings on record: for Increase of blood circulation time: rat, single i.v. injection; for Blood circulation time of the liposomes compared with PEG-grafted liposomes: intravenous administration to rats.
Procedure: Single-dose intravenous injection of liposomal preparations, each containing ^3H-labelled cholesteryloleylether (Amersham) having 40-50 kBq of radioactivity, (compositions per 50 μmol lipid are shown in Table 1) was given into the tail-vein. Total Lipid administered was 5 μmol, except in the cases indicated.
Blood samples were collected from the tail vein of each rat at the following time points post-dose: 5 minutes and 4, 24 and 48 hours. The amount of sample collected was approx. 300 μl per sampling event.
Sampled blood was transferred into heparinised tubes and stored at −20° C.
A single aliquot of 100 μl was solubilised according to the following method:
Radioactivity was measured by LSC.
All radioactive measurements were performed using a Packard scintillation counter (1900TR). Counting time was to a statistical precision of ±0.2% or a maximum of 5 minutes, whichever comes first. The Packard 1900TR was programmed to automatically subtract background and convert counts per minute (CPM) to disintegrations per minute (DPM).
The increase of blood circulation time was assessed, wherein:
Moderate means effect on circulation time in between those shown by PEG-DSPE-containing liposomes and bare liposomes without polymer coating.
Slightly means effect on circulation time under the current conditions almost similar to that shown by bare liposomes.
The nature of series [2]: Particle size and polydispersity of liposomes by (dynamic) light scattering. The format is physicochemical. To be noted: DPPC/cholesterol/conjugate liposomes of Table 1 (Example 21); for Average particle size: dynamic light scattering. The protocol: The lipid loss during preparation of the liposomes was 25%, determined by comparing the final radioactivity of the preparation with the activity before the extrusion procedure. The suspension of liposomes was stored in a nitrogen atmosphere at 4° C. Liposomes were prepared using the film method, as described in example 20. Instead of egg phosphatidylcholine dipalmitoyl phosphatidylcholine was used. 5 mM HEPES buffer was added to the dry lipid film and shaken during 5 minutes in the presence of glass beads in order to enable complete hydration of the lipid film. The liposomes were sized by extrusion 12 times through 2 stacked PC membranes having pore sizes of 100 and 200 nm. […] See table 1 for the properties of the liposomal preparations.

Assay in series [3]: as above
The format is physicochemical.

A short description of series [4]: Storage stability of prednisolone phosphate liposomes at 4° C. (percentage encapsulated prednisolone phosphate versus time). The settings on record: compared with poly(2-hydroxyethyl)-L-glutamine-diaminobutane DODASuc-conjugate-containing liposome.
Where [5] appears, read: Total Lipid administered 5 μmol.
[6] abbreviates: prednisolone phosphate liposomes of Example 23, light scattering.
Setting [7] is: Total Lipid administered 0.005 μmol.
Setting [8] is: Total Lipid administered 0.05 μmol.
Setting [9] is: Total Lipid administered 0.5 μmol.
Setting [10] is: 11.2 mg conjugate per 50 µmol lipid.
The mark [11] stands for this setting: 13.8 mg conjugate per 50 µmol lipid.

For the molecule `CCCCCCCCCCCCCCCCCCN(CCCCCCCCCCCCCCCCCC)C(=O)CCC(=O)NCCC(=O)NCCC(=O)NCCC(=O)N[C@@H](CCC(=O)NCCO)C(=O)NCCC(=O)NCCC(=O)NCCC(=O)NCCC(=O)N[C@@H](CCC(=O)NCCO)C(=O)NCCC(=O)NCCC(=O)NCCC(=O)N[C@@H](CCC(=O)NCCO)C(=O)NCCC(=O)NCCC(N)=O` [Ex. 19, DODASuc-(β-Ala)3-HEG-(β-Ala)4-HEG-(β-Ala)3-HEG-(β-Ala)2-NH2], the “Increase of blood circulation time” value in series [1] (setting [5]) was “Moderate”.

In series [2], Cholesteryl-PHEG [Ex. 6] showed a Polydispersity index of 0.116 and an Average particle size of 138.7 ± 1.8 nm. Besides, in series [1] (setting [5]), the “Increase of blood circulation time” value was “Slightly”.

“PEG-distearoylphosphatidylethanol-amine [PEG-DSPE, reference compound]” showed a Mean particle size in series [3] (setting [6]) of about 90 nm. The same molecule displayed an Average particle size in series [2] of 156.3 nm. The “Increase of blood circulation time” value in series [1] (setting [7]) is listed as “<Slightly”; in series [1] (setting [8]), “Good”; in series [1] (setting [9]), “Good”; in series [1] (setting [5]), “Good”.

For the molecule PHEG-diaminobutane DODASuc [Ex. 5.1], in series [2], the Polydispersity index is 0.090 and 0.073; the Average particle size was 140.3 ± 2.2 nm and 159.0 ± 3.8 nm. The “Blood circulation time of the liposomes compared with PEG-grafted liposomes” value in series [1] is “Results similar to those obtained with the corresponding PEG-grafted liposomes”. The “Increase of blood circulation time” value in series [1] (setting [5]) was “Good and Good §”.

In series [2], “Poly(2-hydroxyethyl)-DL-glutamine diaminobutane DODASuc [Ex. 7]” displayed a Polydispersity index of 0.073 and an Average particle size of 159.0 ± 3.8 nm.

As for “Poly(2-hydroxyethyl)-L-asparagine DODASuc [Ex. 11]”, the “Stability of liposomal preparation with encapsulated prednisolone phosphate” value in series [4] is given as “slightly better result”. In addition, the “Blood circulation time of the liposomes compared with PEG-grafted liposomes” value in series [1] is reported as “Results similar to those obtained with the corresponding PEG-grafted liposomes”. In addition, the “Increase of blood circulation time” value was “Slightly” in series [1] (setting [7]); “Good” in series [1] (setting [8]); “Good” in series [1] (setting [9]); “Good and Good §” in series [1] (setting [5]).

For “Poly(D,L-methionine sulfoxide) DODASuc [Ex. 15]”, in series [2], the Polydispersity index came to 0.062 and the Average particle size came out at 159.9 ± 2.3 nm. Also, in series [1], the “Blood circulation time of the liposomes compared with PEG-grafted liposomes” value was “Results similar to those obtained with the corresponding PEG-grafted liposomes”. For the same molecule, the “Increase of blood circulation time” value in series [1] (setting [5]) is on record as “Good”.

Regarding Poly(DL-asparagine) DODASuc [Ex. 17], in series [1] (setting [5]), the “Increase of blood circulation time” value was “Moderate”.

As to Poly(DL-glutamine DODASuc [Ex. 16], in series [1] (setting [5]), the “Increase of blood circulation time” value is “Moderate”.

As for Poly(DL-serine) DODASuc [Ex. 13], the “Increase of blood circulation time” value in series [1] (setting [5]) is “Slightly”.

Consider “Poly(N-(2-hydroxyethyl)-L-glutamine) Having a Heptadecyloctadecylamine End Group [Ex. 2]”, for which, in series [2], the Polydispersity index turned out to be 0.205 and the Average particle size was 143 ± 2 nm.

In the case of Poly-L-threonine DODASuc [compound 14], the Mean particle size result in series [3] (setting [6]) is recorded as “about 85 nm”.

For “Poly-[(2-hydroxypropyl)-L-glutamine]diaminobutane DODASuc [Ex. 5.2]”, in series [2] (setting [10]), the Average particle size came out at 163.9 ± 3.0 nm and the Polydispersity index is reported as 0.068. Moreover, in series [2] (setting [11]), the Average particle size came to 153.0 ± 0.9 nm and the Polydispersity index turned out to be 0.090.

Regarding “Poly-[(4-hydroxybutyl)-L-glutamine]diaminobutane DODASuc [Ex. 5.4]”, in series [2], the Polydispersity index came to 0.071 and the Average particle size was 148.2 ± 1.7 nm.

In series [2], “Poly-[N-(2-hydroxyethyl)-L-glutamine] Having a Distearylamine End Group Introduced Via N-Boc-1,4-diaminobutane as Initiator [Ex. 3]” registered a Polydispersity index of 0.056 and an Average particle size of 153 ± 0.5 nm.

Consider “poly(HEG-co-dimethylaminoethylglutamine)diaminobutane DODASuc; 5% dimethylaminoethyl sidegroups [Ex. 9]”, for which, in series [2], the Polydispersity index is listed as 0.039 and the Average particle size came out at 170.3 ± 2.5 nm. Also, the “Increase of blood circulation time” value in series [1] (setting [5]) is “Moderate”.

“poly-[N-(2-hydroxyethyl)-L-glutamine]-stearylamine [Ex. 20]” showed a Polydispersity index in series [3] (EPC/cholesterol/PHEG-stearylamine liposomes of Example 20) of 0.099±0.02. In series [3] (EPC/cholesterol/PHEG-stearylamine liposomes of Example 20, light scattering (Malvern Zeta-sizer)), this molecule came in with a Mean particle size of 93.6±0.9 nm. Further, in series [2], the Polydispersity index is 0.167 and the Average particle size is reported as 171.6 ± 2.5 nm.
